From patent US20140154256A1 (published 2014)

T1: recombinant human IL-1α (human, UniProt P01583 113-271)
T1 sequence (looked up): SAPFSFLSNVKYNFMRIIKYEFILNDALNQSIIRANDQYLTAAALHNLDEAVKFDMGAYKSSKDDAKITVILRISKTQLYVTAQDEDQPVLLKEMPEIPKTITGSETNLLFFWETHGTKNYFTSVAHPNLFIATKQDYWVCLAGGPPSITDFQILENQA

B1: hIL-1α/βDVD2-Ig (bispecific antibody, human IgG1, kappa)
heavy: not shown
light: NIVLTQSPASLAVSLGQRATISCRASESVDSYGNSYMHWYQQKPGQPPKLLIYLASNLESGVPARFSGSGSRTDFTLTIDPVEADDAATYYCQQNNEDPFTFGSGTKLEIKRADAAPNIQMTQTTSSLSASLGDRVTISCRASQDISNCLNWYQQKPDGTVKLLIYYTSRLHSGVPSRFSGSGSGTDYSLTISNLEQEDIATYFCQQGKTLPYAFGGGTKLEINRTVAAPSVFIFPPSDEQLKSGTASVVCLLNNFYPREAKVQWKVDNALQSGNSQESVTEQDSKDSTYSLSSTLTLSKADYEKHKVYACEVTHQGLSSPVTKSFNRGEC
notes: 13F5.G5 V - linker (AKTTPP heavy, ADAAP light) - 3D12.E3 V - human Cγ1/Cκ; also called hIL-1a/bDVD2-Ig
B2: hIL-1α/βDVD1-Ig (bispecific antibody, human IgG1, kappa)
heavy: not shown
light: NIVLTQSPASLAVSLGQRATISCRASESVDSYGNSYMHWYQQKPGQPPKLLIYLASNLESGVPARFSGSGSRTDFTLTIDPVEADDAATYYCQQNNEDPFTFGSGTKLEIKRNIQMTQTTSSLSASLGDRVTISCRASQDISNCLNWYQQKPDGTVKLLIYYTSRLHSGVPSRFSGSGSGTDYSLTISNLEQEDIATYFCQQGKTLPYAFGGGTKLEINRTVAAPSVFIFPPSDEQLKSGTASVVCLLNNFYPREAKVQWKVDNALQSGNSQESVTEQDSKDSTYSLSSTLTLSKADYEKHKVYACEVTHQGLSSPVTKSFNRGEC
notes: 13F5.G5 variable domains fused directly (no linker) to the N-terminus of 3D12.E3 variable domains, human Cγ1/Cκ; also called hIL-1a/bDVD1-Ig

Columns and labels:
[1] = target: T1, recombinant human IL-1α; assay: cell-based or functional assay
[2] = target: T2, recombinant human IL-1β (human, UniProt P01584 117-269); assay: cell-based or functional assay
[3] = target: T1, recombinant human IL-1α; assay: SPR (Biacore)
Description: (§1) Purified DVD-Ig samples were diluted in HEPES-buffered saline for capture across goat anti-human IgG Fc specific reaction surfaces and injected over reaction matrices at a flow rate of […]. The association and dissociation rate constants, kon (M-1s-1) and koff (s−1) were determined under a continuous flow rate of […]. […] The equilibrium dissociation constant (M) of the reaction between DVD-Ig and rhIL1α/β was then calculated from the kinetic rate constants by the following formula: KD=koff/kon. Aliquots of rhIL1α/β samples were also simultaneously injected over a blank reference and reaction CM surface to record and subtract any nonspecific binding background to eliminate the majority of the refractive index change and injection noise. Surfaces were regenerated with two subsequent […] injections of 10 mM Glycine (pH 1.5) at a flow rate of […]. The anti-Fc antibody immobilized surfaces were completely regenerated and retained their full capture capacity over twelve cycles. The apparent stoichiometry of the captured DVD-Ig-rhIL1α/β complex was calculated under saturating binding conditions (steady-state equilibrium) using the following formula: […]
(§2) The affinity of the two DVD-Igs to hIL-1 as compared to the affinity of chimeric Abs to hIL-1 was similar as indicated by the evaluation of the stoichiometry to IL-1. Both chimeric Abs, being bivalent monospecific, bound to IL-1α and IL-1β on Biocore with a stoichiometry of 1.6 and 1.7, respectively. This is common for an IgG due to inter-molecular interference when antibodies are immobilized densely on the Biacore sense chip resulting in stoichiometry being in the range from 1.5 to 2.0.

[4] = target: T2, recombinant human IL-1β; assay: SPR (Biacore)
Description: as §1, §2

[5] = target: T2, recombinant human IL-1β; assay: SPR (Biacore); hIL-1β as 1st antigen
Description: (§3) The equilibrium dissociation constant (M) of the reaction between DVD-Ig and rhIL1α/β was then calculated from the kinetic rate constants by the following formula: KD=koff/kon. Aliquots of rhIL1α/β samples were also simultaneously injected over a blank reference and reaction CM surface to record and subtract any nonspecific binding background to eliminate the majority of the refractive index change and injection noise. Surfaces were regenerated with two subsequent […] injections of 10 mM Glycine (pH 1.5) at a flow rate of […]. The anti-Fc antibody immobilized surfaces were completely regenerated and retained their full capture capacity over twelve cycles. The apparent stoichiometry of the captured DVD-Ig-rhIL1α/β complex was calculated under saturating binding conditions (steady-state equilibrium) using the following formula: […]
(§4) In addition, tetravalent dual-specific antigen binding of DVD-Ig was also analyzed by Biacore (Table 14). DVD-Ig was first captured via a goat anti-human Fc antibody on the Biacore sensor chip, and the first antigen was injected and a binding signal observed. As the DVD-Ig was saturated by the first antigen, the second antigen was then injected and the second signal observed. This was done either by first injecting IL-1β then IL-1α or by first injecting IL-1α followed by IL-1β for DVD2-Ig. In either sequence, a dual-binding activity was detected. […]

[6] = target: T1, recombinant human IL-1α; assay: SPR (Biacore); hIL-1α as 1st antigen
Description: as §3, §4

[7] = target: T2, recombinant human IL-1β; assay: SPR (Biacore); hIL-1β as 2nd antigen, DVD2-Ig already occupied by hIL-1α
Description: as §3, §4

[8] = target: T1, recombinant human IL-1α; assay: SPR (Biacore); hIL-1α as 2nd antigen, DVD2-Ig already occupied by hIL-1β
Description: as §3, §4

[9] = target: T1, recombinant human IL-1α; assay: SPR (Biacore); hIL-1α as 2nd antigen, DVD1-Ig already occupied by hIL-1β
Description: as §3, §4

[10] = target: T1, recombinant human IL-1α; assay: cell-based or functional assay; remark: listed apart in the source
[11] = target: T2, recombinant human IL-1β; assay: cell-based or functional assay; remark: listed apart in the source
[12] = target: T1, recombinant human IL-1α; assay: SPR (Biacore 3000); antibody captured via goat anti-human IgG Fc, antigen injected, 1:1 Langmuir fit
Description: (§5) The kinetics of DVD-Ig binding to rhIL1-α and rhIL1-β was determined by surface plasmon resonance-based measurements with a Biacore 3000 instrument (Biacore AB, Uppsala, Sweden) using HBS-EP (10 mM HEPES, pH 7.4, 150 mM NaCl, 3 mM EDTA, and 0.005% surfactant P20) at 25° C. All chemicals were obtained from Biacore AB (Uppsala, Sweden) or otherwise from a different source as described herein. Approximately, 5000 RU of goat anti-human IgG Fcγ fragment specific polyclonal antibody (Pierce Biotechnology Inc, Rockford, Ill.) diluted in 10 mM sodium acetate (pH 4.5) was directly immobilized across a CM5 research grade biosensor chip using a standard amine coupling kit according to manufacturer's instructions and procedures at 25 mg/ml. Unreacted moieties on the biosensor surface were blocked with ethanolamine. Modified carboxymethyl dextran surface in flowcell 2 and 4 was used as a reaction surface. Unmodified carboxymethyl dextran without goat anti-human IgG in flow cell 1 and 3 was used as the reference surface. For kinetic analysis, rate equations derived from the 1:1 Langmuir binding model were fitted simultaneously to association and dissociation phases of all ten injections (using global fit analysis) using the Bioevaluation 4.0.1 software. Purified DVD-Ig samples were diluted in HEPES-buffered saline for capture across goat anti-human IgG Fc specific reaction surfaces and injected over reaction matrices at a flow rate of […]. The association and dissociation rate constants, kon (M-1s-1) and koff (s−1) were determined under a continuous flow rate of […]. […] The equilibrium dissociation constant (M) of the reaction between DVD-Ig and rhIL1α/β was then calculated from the kinetic rate constants by the following formula: KD=koff/kon. Aliquots of rhIL1α/β samples were also simultaneously injected over a blank reference and reaction CM surface to record and subtract any nonspecific binding background to eliminate the majority of the refractive index change and injection noise. Surfaces were regenerated with two subsequent […] injections of 10 mM Glycine (pH 1.5) at a flow rate of […]. The anti-Fc antibody immobilized surfaces were completely regenerated and retained their full capture capacity over twelve cycles.

[13] = target: T2, recombinant human IL-1β; assay: as above
Description: as §5

[14] = target: T1, recombinant human IL-1α; assay: SPR (Biacore), saturating conditions
[15] = target: T2, recombinant human IL-1β; assay: SPR (Biacore), saturating conditions
[16] = target: T2, recombinant human IL-1β; assay: SPR (Biacore); hIL-1β as 2nd antigen, DVD1-Ig already occupied by hIL-1α
Description: as §3, §4

Binder	dual-inhibition activity, MRC-5 assay with equal amounts of hIL-1α and hIL-1β both present [1]	dual-inhibition activity, MRC-5 assay with equal amounts of hIL-1α and hIL-1β both present [2]	fold lower affinity than the chimeric 3D12.E3 Ab [3]	fold higher affinity than DVD1-Ig [4]	Stoichiometry hILβ:DVD-Ig [5]	Stoichiometry hIL1α:DVD-Ig [6]	Stoichiometry hILβ:DVD-Ig [7]	Stoichiometry hIL1α:DVD-Ig [8]	Stoichiometry hIL1α:DVD-Ig [9]	Potency (IC50) M, MRC-5 bioassay [10]	Potency (IC50) M, MRC-5 bioassay [11]	Kd [12]	koff [12]	kon [12]	Kd [13]	koff [13]	kon [13]	Stoichiometry [14]	Stoichiometry [15]	Stoichiometry hILβ:DVD-Ig [16]
B1	1.2 nM	1.2 nM	3 fold	3 fold	1.6	1.8	1.3	1.2												
B2	2.2 nM	2.2 nM	2 to 3 fold		1.5	2.3			1.1	2.3 nM	3.1 nM	2.83 nM	0.000105 s⁻¹	37000 M⁻¹ s⁻¹	2.6 nM	0.00159 s⁻¹	609000 M⁻¹ s⁻¹	1.8	1.5	1
